The results in this text go back to patent US20180030137A1 (ADURO BIOTECH HOLDINGS EUROPE B V, published 2018).

Test [1] concerns the target T1, Human PD-1 (Swiss-Prot entry Q15116), full length, on cells (human, UniProt Q15116 21-288).
T1 construct: Full length open reading frame of hPD-1 stably expressed on CHO-K1 cells; also endogenous PD-1 on CD3/CD28-stimulated human CD3+ T cells and PD-1 on transfected Jurkat cells; also called hPD-1; hPDCD1
Description: CELISA on CHO-K1.hPDCD1 cells. The procedure: (§1) To further characterize these mutant hPD-1 antibodies they were tested for binding to hPD-1 in CELISA format using CHO-K1 cells (American Type Culture Collection, Manassas, Va.), stably transfected with cDNA encoding the full length open reading frame of hPDCD1 (hPD-1), subcloned into the pCI-neo vector (Promega). Parental CHO-K1 or CHO-K1.hPDCD1 cells were seeded in culture medium (DMEM-F12 (Gibco) with 10% Fetal Bovine Serum (Hyclone) and Pen/Strep (Gibco)) in tissue culture plates and incubated for 48 hours at 37° C. Subsequently culture medium was removed and cells were incubated for 1 hour at 37° C. with the mutant hPD-1 antibodies (10 μg/ml (=66 nM) and dilutions thereof). Next, cells were washed with Phosphate-Buffered Saline/0.05% Tween (PBST) and incubated for 1 hour at 37° C. with Goat-anti-human IgG-HRP (Southern Biotech). Subsequently, cells were washed 3 times with PBST and anti-hPD1 immunoreactivity was visualized with 100 al TMB Stabilized Chromagen (Invitrogen). Reactions were stopped with 100 al 0.5 M H2SO4 and absorbances were read at 450 and 610 nm. […] Blockade of hPD-L1 binding by the mutant hPD-1 antibodies was tested in CELISA format. […] Reactions were stopped with 100 al 0.5 M H2SO4 and absorbances were read at 450 and 610 nm. Calculated IC50 values in Table 12 for the blockade of hPD-L1 represent the concentration at which half of the inhibition is observed.

In test [2] the target is T1, Human PD-1 (Swiss-Prot entry Q15116), …. Description: CELISA on CHO-K1.hPDCD1 cells. The procedure:
as §1, with “format. Parental CHO-K1 or CHO-K1.hPDCD1 cells were seeded in tissue culture plates and incubated for 72 hours at 37° C. in culture medium. Subsequently culture medium was removed and cells were incubated for 1 hour with the mutant hPD-1 antibodies (10 μg/ml (=66 nM) and dilutions thereof) at 37° C. […] Cells were then washed three times with PBST followed by addition of Streptavidin-HRP conjugate on the cells, which was incubated for 1 hour at 37° C.” for “format.”
The source holds these as a separate data set.

Test [3] concerns the target T2, Macaca fascicularis PD-1 (Swiss-Prot entry B0LAJ3), full length, on cells (Macaca fascicularis, UniProt Q15116 25-288 (human entry)).
T2 construct: Full length open reading frame transiently expressed on CHO-K1 cells; also endogenous PD-1 on CD3/CD28-stimulated cynomolgus PBMCs; No signal peptide limits are stated for the cynomolgus entry; also called cyno PD-1; cynomolgus PD-1
T2 chain: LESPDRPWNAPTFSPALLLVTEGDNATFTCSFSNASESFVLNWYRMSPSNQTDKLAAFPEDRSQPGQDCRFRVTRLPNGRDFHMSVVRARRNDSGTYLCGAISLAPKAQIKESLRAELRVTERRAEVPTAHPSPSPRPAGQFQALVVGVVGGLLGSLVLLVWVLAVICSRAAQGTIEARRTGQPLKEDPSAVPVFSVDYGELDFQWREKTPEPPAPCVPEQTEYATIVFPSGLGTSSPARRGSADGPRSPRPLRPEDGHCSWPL
Description: CELISA on CHO-K1 cells transiently transfected with cyno PD-1. The protocol:
Parental CHO-K1 or CHO-K1.cynoPD1 cells were seeded in tissue culture plates and incubated for 48 hours at 37° C. Subsequently culture medium was removed and cells were incubated for 1 hour with purified hPD-1 antibodies (10 μg/ml (=66 nM) and dilutions thereof) at 37° C. Next, cells were washed with PBST and incubated for 1 hour at 37° C. with Goat-anti-human (Jackson Immuno Research). Subsequently, cells were washed 3 times with PBST and anti-hPD1 immunoreactivity was visualized with 100 μL TMB Stabilized Chromagen (Invitrogen). Reactions were stopped with 100 μL 0.5 M H2SO4 and absorbances were read at 450 and 610 nm.

For test [4], the target named is T1, Human PD-1 (Swiss-Prot entry Q15116), …. In words: CELISA on CHO-K1.hPDCD1 cells; blocking of biotinylated hPD-L1 Fc. The procedure:
as §1

For test [5], the target named is T3, hPD-1/Fc fusion protein (R&D Systems) (human, UniProt Q15116 25-167).
T3 construct: Bought reagent; also called Recombinant hPD-1/Fc; not shown: Fc part of the bought fusion protein
Description: BLI (Octet RED96), hPD-1/Fc amine-coupled, IgG in solution, 1:1 global fit. The protocol: This assay was, performed by coupling hPD-1/Fc fusion protein (R&D Systems) to amine-reactive second generation biosensors (Fortebio) using standard amine chemistry. […] Amine-reactive biosensors were pre-wet by immersing them in wells containing 0.1M MES pH=5.5 for 10 minutes. The biosensors were then activated using a 0.1M NHS/0.4M EDC mixture for 5 minutes. hPD-1/Fc fusion protein was coupled by immersing the biosensors in a solution of 12 ug/mL hPD-1/Fc in 0.1 M MES for 7.5 minutes. The biosensor surface was quenched using a solution of 1M ethanolamine for 5 minutes. Biosensors were equilibrated in Octet kinetics buffer (ForteBio) for 5 minutes. […] Dissociation was measured after transfer of the biosensors into kinetics buffer and monitoring of the interferometry signal for 45 minutes. The assay was run with a plate temperature of 30° C. The observed on and off rates (kobs and kd) were fit using a 1:1 binding global fit model comprising all concentrations tested, and the equilibrium binding constant KD was calculated.

Test [6] addresses T1, Human PD-1 (Swiss-Prot entry Q15116), …. In words: flow cytometry on CD3/CD28-stimulated human CD3+ T cells, three donors; CD3/CD28 stimulated human T cells, three donors. The procedure:
Cells were stored in liquid nitrogen and retrieved from the freezer on the day of the experiment. Since endogenous expression of hPD-1 on resting T cells is low, the thawed CD3+ T cells were stimulated with αCD3/αCD28 coated beads (Gibco) for 48 hours.

One may read the EC50 as the concentration that produces a half-maximal response. A word on the IC50: it is the concentration at which inhibition is half-maximal. A lower IC50 goes with inhibition by little substance. As a reminder, the Kd is the concentration at which binding is half-saturated. The low end stands for tighter binding, the high end for weaker binding. Broadly, the koff is the rate constant with which the complex falls apart. A higher koff goes with a short-lived complex. As usually defined, the kon is the rate constant with which the complex forms.

T1 sequence (Q15116 21-288, one chain of several): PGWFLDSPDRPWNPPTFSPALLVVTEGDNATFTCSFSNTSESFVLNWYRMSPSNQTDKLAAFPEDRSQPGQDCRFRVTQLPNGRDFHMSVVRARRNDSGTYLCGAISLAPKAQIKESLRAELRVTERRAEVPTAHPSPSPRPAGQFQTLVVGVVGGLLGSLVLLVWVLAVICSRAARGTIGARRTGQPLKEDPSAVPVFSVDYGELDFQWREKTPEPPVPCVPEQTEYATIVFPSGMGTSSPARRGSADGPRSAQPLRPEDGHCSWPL
T3 sequence (Q15116 25-167 limits assumed): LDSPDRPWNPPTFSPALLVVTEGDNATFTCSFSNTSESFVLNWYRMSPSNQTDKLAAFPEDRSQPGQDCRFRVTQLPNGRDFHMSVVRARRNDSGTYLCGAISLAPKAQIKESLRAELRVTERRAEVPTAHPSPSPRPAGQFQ

B1: hPD1.29H5L4 (antibody, V domains shown)
VH: EVQLVQSGAEVKKPGASVKVSCKASGYIFTTYYIHWVKQAPGKGLEWIGWIFPGDVSTQYNEKFQDKATITVDKSASTAYMQLSSLRSEDTAVYYCTREAYDYAVYWGQGTLVTVSS
VL: DIQMTQAPSSLSASVGDRVTITCKASQNVDTNVAWFQQKPGKAPKSLIFSASYRYSGVPSRFSGSGSGTDFTLTISSLQPEDFATYYCQQYNNYPFTFGGGTKLEIK
notes: Expressed as human IgG4, kappa with the stabilizing S241P (Kabat) hinge mutation in HEK293 cells; also called humanized PD-1 antibody hPD1.29H5L4
Turning to B1, the 50% effective concentration (EC50) amounted to 0.13 nM in test [1], 0.3 nM in test [2], 0.45 nM in test [3] and 0.27 nM in test [6]. In test [4], this molecule yielded an IC50 of 0.7 nM. Binding in test [5] was characterised by a dissociation constant (Kd) of 0.011 nM. This molecule also showed a koff in test [5] of 9.2e-06 s⁻¹. The molecule also gave a kon in test [5] of 860000 M⁻¹ s⁻¹.
